According to patent publication US20050048572A1 (Genentech, published 2005):

Tests used:
Human VEGF 165 [1] = target: T1, Human VEGF 165 (human, UniProt P15692 27-191); experiment: SPR (BIAcore-3000), apparent Kd from koff/kon, VEGF165 immobilised, 37 C
T1 construct: mature; The 165-residue isoform without signal peptide; made in E. coli as in Simmons & Yansura 1996
Description: (§1) A CM-5 biosensor chip (Biacore, Inc.) was activated according to the manufacturer's instructions for amine coupling. […] Unreacted groups were blocked with 1 M ethanolamine. […] The kinetics of IgG variants binding to immobilized VEGF were measured with 2-fold serial dilutions beginning with 500 nM IgG in running buffer (PBS, 0.05% Tween, 0.01% sodium azide) at a flow rate of 20 μl/min (see FIG. 12). Binding measurements were carried out at 37° C. Regeneration of the chip after each cycle was with 20 mM HCl, followed by washing, an injection of 100 mM Tris pH 8.0, and additional washing.
(§2) The kinetic curves were fit to a 1:1 Langmuir binding model using BIAcore evaluation software version 3, which calculated association (kₒₙ) and dissociation (koff) rates. An apparent equilibrium constant, Kd, was calculated from koff/kₒₙ for each variant (Table 7).

Human VEGF 165 [2] = target: T1, Human VEGF 165; experiment: SPR (BIAcore-3000), VEGF165 immobilised on CM-5 chip, IgG in solution, 37 C, 1:1 Langmuir fit
Description: as §1, §2

T1 sequence (P15692 other isoform, or with tags, fused parts or gaps): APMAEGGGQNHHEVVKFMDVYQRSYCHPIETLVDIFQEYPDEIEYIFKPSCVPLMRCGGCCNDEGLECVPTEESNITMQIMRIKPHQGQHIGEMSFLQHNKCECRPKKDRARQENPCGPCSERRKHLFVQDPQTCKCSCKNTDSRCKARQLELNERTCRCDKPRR

- Kd (Human VEGF 165 [1]): 0.25 nM
- koff (Human VEGF 165 [2]): 5.9e-06 s⁻¹
- kon (Human VEGF 165 [2]): 23000 M⁻¹ s⁻¹
B1: anti-VEGF antibody VNERK, full-length, wild type hinge, produced in E. coli (antibody, V domains shown)
VH: EVQLVESGGGLVQPGGSLRLSCAASGYTFTNYGINWVRQAPGKGLEWVGWINTYTGEPTYAADFKRRFTFSLDTSKSTAYLQMNSLRAEDTAVYYCAKYPHYYVNERKSHWYFDVWGQGTLVTVSS
VL: DIQLTQSPSSLSASVGDRVTITCSASQDISNYLNWYQQKPGKAPKVLIYFTSSLHSGVPSRFSGSGSGTDFTLTISSLQPEDFATYYCQQYSTVPWTFGQGTKVEIKR
notes: Full-length aglycosylated human IgG1 made in E. coli; also called VNERK wild type; VNERK hinge wild type
